# PMC8292422 (Nature Communications, 2021)
# T1: AtRR1 (Agrobacterium fabrum, UniProt Q7CY46)
# T1 construct: gene Atu1989; REC-domain-only response regulator, His6 tag, pET21b(+) with N-terminal T7 tag, E. coli BL21(DE3)
# T1 sequence (Q7CY46 1-151): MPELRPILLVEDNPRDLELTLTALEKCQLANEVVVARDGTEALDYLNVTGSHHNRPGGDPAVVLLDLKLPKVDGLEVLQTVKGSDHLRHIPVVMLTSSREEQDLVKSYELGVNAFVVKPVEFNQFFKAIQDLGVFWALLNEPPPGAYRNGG
# T2: DrBphP (Deinococcus radiodurans, UniProt Q9RZA4)
# T2 construct: gene bphP; full length (755 residues), C-terminal His6 tag, pET21b(+), E. coli BL21(DE3), assembled with biliverdin
# T2 sequence (Q9RZA4 1-755): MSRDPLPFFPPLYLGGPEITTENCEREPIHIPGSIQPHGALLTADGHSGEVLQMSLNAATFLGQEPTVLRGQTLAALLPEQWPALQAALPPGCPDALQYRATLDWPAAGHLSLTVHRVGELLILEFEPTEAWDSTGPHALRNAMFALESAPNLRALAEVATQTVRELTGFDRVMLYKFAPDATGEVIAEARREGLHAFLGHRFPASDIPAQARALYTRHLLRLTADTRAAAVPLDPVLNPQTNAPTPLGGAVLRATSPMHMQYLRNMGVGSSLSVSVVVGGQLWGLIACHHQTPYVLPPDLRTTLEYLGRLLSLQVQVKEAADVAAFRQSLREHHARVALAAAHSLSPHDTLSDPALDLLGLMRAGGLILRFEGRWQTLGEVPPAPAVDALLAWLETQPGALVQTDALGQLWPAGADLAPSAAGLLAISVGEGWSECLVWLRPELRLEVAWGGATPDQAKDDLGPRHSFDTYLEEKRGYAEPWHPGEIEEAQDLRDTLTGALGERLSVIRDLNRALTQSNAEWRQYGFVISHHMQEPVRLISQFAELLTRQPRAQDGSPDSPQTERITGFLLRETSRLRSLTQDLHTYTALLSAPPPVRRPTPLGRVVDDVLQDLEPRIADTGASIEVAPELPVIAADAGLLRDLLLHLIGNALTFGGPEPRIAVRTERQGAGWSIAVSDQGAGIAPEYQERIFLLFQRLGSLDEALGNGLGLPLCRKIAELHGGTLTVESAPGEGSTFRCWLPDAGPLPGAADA
# T3: bacteriophytochrome from Deinococcus radiodurans (DrBphP), wild type (Deinococcus radiodurans strain R1, UniProt Q9RZA4 1-755, biliverdin chromophore (molar excess of biliverdin hydrochloride added to the lysate; thioether linkage to the conserved cysteine within the PAS domain))
# T3 construct: Pr (dark or far-red) and Pfr (red light) states are told apart by the assay; source: E. coli BL21 (DE3), purified (NiNTA, SEC)
# T3 sequence: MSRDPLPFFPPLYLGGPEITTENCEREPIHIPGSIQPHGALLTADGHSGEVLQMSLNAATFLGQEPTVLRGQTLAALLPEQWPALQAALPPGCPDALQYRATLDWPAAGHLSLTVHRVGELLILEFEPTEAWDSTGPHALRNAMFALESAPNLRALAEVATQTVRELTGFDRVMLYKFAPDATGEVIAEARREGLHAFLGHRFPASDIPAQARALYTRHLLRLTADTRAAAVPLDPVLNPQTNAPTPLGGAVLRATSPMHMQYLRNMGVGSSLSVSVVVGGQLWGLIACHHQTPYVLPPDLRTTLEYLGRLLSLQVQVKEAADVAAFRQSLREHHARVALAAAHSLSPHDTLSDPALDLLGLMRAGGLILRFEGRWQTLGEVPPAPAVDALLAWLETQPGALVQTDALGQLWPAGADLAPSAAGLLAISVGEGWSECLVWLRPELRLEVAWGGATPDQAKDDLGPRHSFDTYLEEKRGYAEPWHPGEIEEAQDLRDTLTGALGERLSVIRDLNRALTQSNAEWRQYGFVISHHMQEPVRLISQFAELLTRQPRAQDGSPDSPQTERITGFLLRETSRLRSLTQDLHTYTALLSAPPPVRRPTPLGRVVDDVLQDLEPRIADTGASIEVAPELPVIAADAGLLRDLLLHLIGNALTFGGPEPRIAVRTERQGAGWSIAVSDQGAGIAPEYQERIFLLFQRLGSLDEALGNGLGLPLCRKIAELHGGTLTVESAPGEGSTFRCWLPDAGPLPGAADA
# T4: DrBphP E536A variant (Deinococcus radiodurans strain R1, UniProt Q9RZA4 1-755, E536A, biliverdin chromophore (molar excess of biliverdin hydrochloride added to the lysate))
# T4 construct: source: E. coli BL21 (DE3), purified (NiNTA, SEC)
# T4 sequence: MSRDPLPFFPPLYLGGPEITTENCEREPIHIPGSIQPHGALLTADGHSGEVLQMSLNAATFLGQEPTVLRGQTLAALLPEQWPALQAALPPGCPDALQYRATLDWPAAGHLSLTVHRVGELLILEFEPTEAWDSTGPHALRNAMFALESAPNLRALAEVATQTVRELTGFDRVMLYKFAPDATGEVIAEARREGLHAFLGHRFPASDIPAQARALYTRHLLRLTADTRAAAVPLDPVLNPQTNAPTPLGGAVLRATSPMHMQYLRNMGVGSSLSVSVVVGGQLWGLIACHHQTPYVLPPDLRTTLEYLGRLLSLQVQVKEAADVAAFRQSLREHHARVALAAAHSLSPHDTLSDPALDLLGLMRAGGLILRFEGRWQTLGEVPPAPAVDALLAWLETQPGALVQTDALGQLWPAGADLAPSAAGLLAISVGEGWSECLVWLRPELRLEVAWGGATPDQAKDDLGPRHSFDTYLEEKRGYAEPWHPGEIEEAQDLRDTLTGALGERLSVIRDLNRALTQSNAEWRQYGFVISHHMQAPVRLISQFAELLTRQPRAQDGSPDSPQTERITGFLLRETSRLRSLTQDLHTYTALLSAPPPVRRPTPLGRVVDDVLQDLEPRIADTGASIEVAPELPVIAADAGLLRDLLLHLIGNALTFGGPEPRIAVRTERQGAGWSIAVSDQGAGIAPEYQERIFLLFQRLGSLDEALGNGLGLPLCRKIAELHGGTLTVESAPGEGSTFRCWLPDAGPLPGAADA
# T5: response regulator from Deinococcus radiodurans (DrRR) (Deinococcus radiodurans strain R1, UniProt Q9RZA5 1-149)
# T5 chain: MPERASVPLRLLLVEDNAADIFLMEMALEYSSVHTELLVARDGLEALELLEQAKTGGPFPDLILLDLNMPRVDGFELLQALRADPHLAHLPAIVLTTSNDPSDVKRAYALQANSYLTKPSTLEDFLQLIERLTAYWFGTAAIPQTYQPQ
# Key:
# AtRR1 = target: T1, AtRR1; test: chemical phosphorylation, Phos-tag gel; assay type: biochemical; conditions: 50 mM acetyl phosphate, 5 mM MgCl2, pH 7.8, 37 °C, 30 min
# DrBphP = target: T2, DrBphP; test: Phos-tag gel, dephosphorylation of phospho-DrRR with and without ATP; assay type: biochemical; conditions: 1 mM ATP, phospho-DrRR as substrate, 5 mM MgCl2, pH 7.8, 25 °C, dark or red light
# [1] = target: T3, bacteriophytochrome from Deinococcus …; test: SPR; same sensorgrams as the dark steady-state SPR; 1:1 Langmuir kinetic fit of ka/kd; DrBphP 8-67 µM; conditions: both partners purified
# [2] = target: T3, bacteriophytochrome from Deinococcus …; test: SPR; Biacore X; response regulator coupled (EDC/NHS) on a carboxymethyldextran chip, phytochrome flowed after red light (655 nm, Pfr); 20 mM HEPES, 300 mM NaCl, 5 mM MgCl2, 0.10% Tween20, pH 7.5; room temperature; steady-state fit; conditions: both partners purified
# DrBphP E536A variant [3] = target: DrBphP E536A variant (Deinococcus radiodurans strain R1, UniProt Q9RZA4 1-755, E536A, biliverdin chromophore (molar excess of biliverdin hydrochloride added to the lysate)); test: ITC
# [4] = target: T3, bacteriophytochrome from Deinococcus …; test: SPR; Biacore X; response regulator coupled (EDC/NHS) on a carboxymethyldextran chip, phytochrome flowed; dark (Pr, far-red 785 nm pre-illumination); 20 mM HEPES, 300 mM NaCl, 5 mM MgCl2, 0.10% Tween20, pH 7.5; room temperature; steady-state (Req) fit, 1:1 model; conditions: both partners purified
# DrBphP E536A variant [5] = target: T4, DrBphP E536A variant; test: ITC; MicroCal PEAQ-ITC; BphP (30-50 µM) in the cell in the Pr state (785 nm), RR (750-800 µM) in the syringe; 25 °C, dark; Tris/HCl pH 7.8, 5 mM MgCl2, 4 mM 2-mercaptoethanol, 5% ethylene glycol; single-site fit; also run with AMP-PNP or Ca2+ added; conditions: both partners purified
# [6] = target: T3, bacteriophytochrome from Deinococcus …; test: as above; conditions: both partners purified
# [7] = target: T5, response regulator from Deinococcus …; test: ITC; 1 mM AMP-PNP
# [8] = target: T5, response regulator from Deinococcus …; test: SPR; dark (D), kinetic
# [9] = target: T5, response regulator from Deinococcus …; test: ITC; Tris pH 8.0
# [10] = target: T5, response regulator from Deinococcus …; test: SPR; red light (R), kinetic
# [11] = target: T5, response regulator from Deinococcus …; test: SPR; dark (D), kinetic
# [12] = target: T5, response regulator from Deinococcus …; test: ITC; dark (D), 30 mM Tris/HCl, pH 8.0
# [13] = target: T5, response regulator from Deinococcus …; test: SPR; red light (R), kinetic
# [14] = target: T5, response regulator from Deinococcus …; test: ITC; Ca2+ buffer
# [15] = target: the molecule itself; test: SEC; EGFP-labeled response regulator alone; Superdex-200 Increase 3.2/300; 25 mM Tris/HCl pH 7.8, 5 mM MgCl2, 4 mM 2-mercaptoethanol, 5% ethylene glycol; 24 µl at 5 mg/ml; plotted at 280 nm
molecule,measurement,setting,value
CC(=O)OP(=O)(O)O [acetyl phosphate],"chemical phosphorylation, Phos-tag gel",AtRR1,whereas AtRR1 responded to the treatment weakly
Nc1ncnc2c1ncn2[C@@H]1O[C@H](COP(=O)(O)OP(=O)(O)OP(=O)(O)O)[C@@H](O)[C@H]1O [ATP],"Phos-tag gel, dephosphorylation of phospho-DrRR with and without ATP",DrBphP,the phosphatase activity in DrBphP depended on ATP addition
"response regulator from Deinococcus radiodurans (DrRR) (natural protein, consists only of a receiver (REC) domain; Forms dimers in the crystal (four monomers, two dimers in the asymmetric unit); also called Q9RZA5_DEIRA; source: E. coli BL21 (DE3), purified (NiNTA, SEC)) MPERASVPLRLLLVEDNAADIFLMEMALEYSSVHTELLVARDGLEALELLEQAKTGGPFPDLILLDLNMPRVDGFELLQALRADPHLAHLPAIVLTTSNDPSDVKRAYALQANSYLTKPSTLEDFLQLIERLTAYWFGTAAIPQTYQPQ",Kd,[1],~10 µM
same,Kd,[2],60 ± 7 µM
same,Kd,DrBphP E536A variant [3],13 µM
same,Kd,[4],43 ± 8 µM
same,binding result,DrBphP E536A variant [5],binds
same,Kd,[6],8.1 µM
"bacteriophytochrome from Deinococcus radiodurans (DrBphP), wild type (enzyme, biliverdin chromophore (molar excess of biliverdin hydrochloride added to the lysate; thioether linkage to the conserved cysteine within the PAS domain)) MSRDPLPFFPPLYLGGPEITTENCEREPIHIPGSIQPHGALLTADGHSGEVLQMSLNAATFLGQEPTVLRGQTLAALLPEQWPALQAALPPGCPDALQYRATLDWPAAGHLSLTVHRVGELLILEFEPTEAWDSTGPHALRNAMFALESAPNLRALAEVATQTVRELTGFDRVMLYKFAPDATGEVIAEARREGLHAFLGHRFPASDIPAQARALYTRHLLRLTADTRAAAVPLDPVLNPQTNAPTPLGGAVLRATSPMHMQYLRNMGVGSSLSVSVVVGGQLWGLIACHHQTPYVLPPDLRTTLEYLGRLLSLQVQVKEAADVAAFRQSLREHHARVALAAAHSLSPHDTLSDPALDLLGLMRAGGLILRFEGRWQTLGEVPPAPAVDALLAWLETQPGALVQTDALGQLWPAGADLAPSAAGLLAISVGEGWSECLVWLRPELRLEVAWGGATPDQAKDDLGPRHSFDTYLEEKRGYAEPWHPGEIEEAQDLRDTLTGALGERLSVIRDLNRALTQSNAEWRQYGFVISHHMQEPVRLISQFAELLTRQPRAQDGSPDSPQTERITGFLLRETSRLRSLTQDLHTYTALLSAPPPVRRPTPLGRVVDDVLQDLEPRIADTGASIEVAPELPVIAADAGLLRDLLLHLIGNALTFGGPEPRIAVRTERQGAGWSIAVSDQGAGIAPEYQERIFLLFQRLGSLDEALGNGLGLPLCRKIAELHGGTLTVESAPGEGSTFRCWLPDAGPLPGAADA",Kd,[7],~11 µM
same,Kd,[8],6.2 µM
same,Kd,[9],35 µM
same,Kd,[10],15.5 µM
same,koff,[11],0.0046 s⁻¹
same,Kd,[12],35 µM
same,koff,[13],0.0065 s⁻¹
same,Kd,[14],2.8 µM
"EGFP-labeled AtRR1 (natural protein, also called EGFP-AtRR1; source: E. coli BL21 (DE3), purified (NiNTA, SEC)) MPELRPILLVEDNPRDLELTLTALEKCQLANEVVVARDGTEALDYLNVTGSHHNRPGGDPAVVLLDLKLPKVDGLEVLQTVKGSDHLRHIPVVMLTSSREEQDLVKSYELGVNAFVVKPVEFNQFFKAIQDLGVFWALLNE",stoichiometry N,[15],2
